How the values were obtained:
[1] = target: D474A-PfCpn60 (Plasmodium falciparum mitochondrial chaperonin 60, ATP hydrolysis-deficient mutant) (Plasmodium falciparum (isolate FCR-3/Gambia)); assay: crystal structure; D474A-PfCpn60 with bound ATP; crystals from phosphate citrate buffer pH 4.4, 13% isopropanol, lithium sulfate; 3.69 Å; one heptameric ring in the asymmetric unit
[2] = target: D474A-PfCpn60 (Plasmodium falciparum mitochondrial chaperonin 60, ATP hydrolysis-deficient mutant) (Plasmodium falciparum (isolate FCR-3/Gambia)); assay: negative stain electron microscopy

With “D474A-PfCpn60 (Plasmodium falciparum mitochondrial chaperonin 60, ATP hydrolysis-deficient mutant) (domain or fragment)” the stoichiometry N [1] was 14 and the stoichiometry N [2] was 7.
